Drawing on PMC3056158, this text covers stoichiometry N for 1 molecule.

For the test, the target named is SPNct, C-terminal glycohydrolase domain of Streptococcus pyogenes beta-NAD+ glycohydrolase (SPN), residues 191-451 (Streptococcus pyogenes). The experiment in a line: crystal structure.

B1: Immunity factor for SPN (IFS), full length, residues 1-161 (natural protein)
chain: MYKVPKGLEHYQKMFQKEVTVNDLKKYLIGSDKEYRITRRDSYMGDISDPEVILEYGVYPAFIKGYTQLKANIEEALLEMSNSGQALDIYQAVQTLNAENMLLNYYESLPFYLNRQSILANITKALKDAHIREAMAHYKLGEFAHYQDTMLDMVERTIETF
modifications: selenomethionine in place of methionine in the derivative used for MAD phasing
For B1, the stoichiometry N came to 1.

Usually stoichiometry N stands for the number of molecules, sites or subunits per partner or assembly.
